For 19 molecules, OD450 nm and Ratio OD(Variant)/OD(WT) results are on record in patent US20240400654A1.

Several values for one entry are separate records, joined by “and”; a condition that tells them apart may be missing. Equal entries are not always repeated.

In the assay the target is HRgpA-6H (Porphyromonas gingivalis) (UniProt P28784). The assay can be described thus: ELISA, coated HRgpA-6H. (In general: In an ELISA, binding on a coated surface is turned into a signal by an enzyme label.)
Chain of UniProt P28784 (P28784 228-860 limits assumed): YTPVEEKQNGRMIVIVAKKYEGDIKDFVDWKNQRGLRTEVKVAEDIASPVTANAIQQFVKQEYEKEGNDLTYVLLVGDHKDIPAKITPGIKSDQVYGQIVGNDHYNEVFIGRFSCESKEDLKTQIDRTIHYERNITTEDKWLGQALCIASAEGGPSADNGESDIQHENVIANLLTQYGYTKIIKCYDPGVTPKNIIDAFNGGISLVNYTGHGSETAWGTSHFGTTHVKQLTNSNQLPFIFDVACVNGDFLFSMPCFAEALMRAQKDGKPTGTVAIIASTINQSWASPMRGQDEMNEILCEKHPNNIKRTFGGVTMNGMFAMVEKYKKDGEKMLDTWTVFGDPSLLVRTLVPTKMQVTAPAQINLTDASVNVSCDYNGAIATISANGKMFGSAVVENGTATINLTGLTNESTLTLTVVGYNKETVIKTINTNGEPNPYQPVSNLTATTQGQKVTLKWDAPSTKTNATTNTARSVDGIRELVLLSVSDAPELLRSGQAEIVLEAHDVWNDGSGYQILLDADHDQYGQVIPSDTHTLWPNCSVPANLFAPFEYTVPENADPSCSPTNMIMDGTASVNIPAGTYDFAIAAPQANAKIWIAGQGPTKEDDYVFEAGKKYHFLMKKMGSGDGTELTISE

B1: KB001 mouse Fab VL S27W (Fab, V domains shown)
VH: EVQLKQSGPGLVAPSQSLSITCTVSGFSLSIYSVHWVRQPPGKGLEWLGMIWGGGSSDYNSALKSRLSISKDNSKSQVFLKMNSLQTDDTAMYYCARNGNFYAMDYWGQGTSVTVSS
VL: QIVLTQSPAIMSASLGERVTMTCTASWSVSSSFLHWYQQKPGSSPQLWIYSTSNLASGVPARFSGSGSGTSYSLTISSMEAEDAATYYCHQYHHSPYIYTFGGGTKLEIK
Take B1: the OD450 nm came out at 0.601 and the Ratio OD(Variant)/OD(WT) came to 0.801.

B2: KB001 mouse Fab VL S30W (Fab, V domains shown)
VH: EVQLKQSGPGLVAPSQSLSITCTVSGFSLSIYSVHWVRQPPGKGLEWLGMIWGGGSSDYNSALKSRLSISKDNSKSQVFLKMNSLQTDDTAMYYCARNGNFYAMDYWGQGTSVTVSS
VL: QIVLTQSPAIMSASLGERVTMTCTASSSVWSSFLHWYQQKPGSSPQLWIYSTSNLASGVPARFSGSGSGTSYSLTISSMEAEDAATYYCHQYHHSPYIYTFGGGTKLEIK
Regarding B2, the OD450 nm was 0.823 and the Ratio OD(Variant)/OD(WT) is 0.955.

B3: KB001 mouse Fab VL S27M (Fab, V domains shown)
VH: EVQLKQSGPGLVAPSQSLSITCTVSGFSLSIYSVHWVRQPPGKGLEWLGMIWGGGSSDYNSALKSRLSISKDNSKSQVFLKMNSLQTDDTAMYYCARNGNFYAMDYWGQGTSVTVSS
VL: QIVLTQSPAIMSASLGERVTMTCTASMSVSSSFLHWYQQKPGSSPQLWIYSTSNLASGVPARFSGSGSGTSYSLTISSMEAEDAATYYCHQYHHSPYIYTFGGGTKLEIK
As for B3, the OD450 nm is 0.709 and the Ratio OD(Variant)/OD(WT) worked out at 0.945.

B4: KB001 mouse Fab VL S30D (Fab, V domains shown)
VH: EVQLKQSGPGLVAPSQSLSITCTVSGFSLSIYSVHWVRQPPGKGLEWLGMIWGGGSSDYNSALKSRLSISKDNSKSQVFLKMNSLQTDDTAMYYCARNGNFYAMDYWGQGTSVTVSS
VL: QIVLTQSPAIMSASLGERVTMTCTASSSVDSSFLHWYQQKPGSSPQLWIYSTSNLASGVPARFSGSGSGTSYSLTISSMEAEDAATYYCHQYHHSPYIYTFGGGTKLEIK
Regarding B4, the OD450 nm is 0.702 and 0.723; the Ratio OD(Variant)/OD(WT) is 0.814 and 0.839.

B5: KB001 mouse Fab VL S30H (Fab, V domains shown)
VH: EVQLKQSGPGLVAPSQSLSITCTVSGFSLSIYSVHWVRQPPGKGLEWLGMIWGGGSSDYNSALKSRLSISKDNSKSQVFLKMNSLQTDDTAMYYCARNGNFYAMDYWGQGTSVTVSS
VL: QIVLTQSPAIMSASLGERVTMTCTASSSVHSSFLHWYQQKPGSSPQLWIYSTSNLASGVPARFSGSGSGTSYSLTISSMEAEDAATYYCHQYHHSPYIYTFGGGTKLEIK
Consider B5, for which the OD450 nm was 0.808 and 0.747; the Ratio OD(Variant)/OD(WT) was 0.937 and 0.867.

B6: KB001 mouse Fab VL S30E (Fab, V domains shown)
VH: EVQLKQSGPGLVAPSQSLSITCTVSGFSLSIYSVHWVRQPPGKGLEWLGMIWGGGSSDYNSALKSRLSISKDNSKSQVFLKMNSLQTDDTAMYYCARNGNFYAMDYWGQGTSVTVSS
VL: QIVLTQSPAIMSASLGERVTMTCTASSSVESSFLHWYQQKPGSSPQLWIYSTSNLASGVPARFSGSGSGTSYSLTISSMEAEDAATYYCHQYHHSPYIYTFGGGTKLEIK
For B6, the OD450 nm is 0.813 and the Ratio OD(Variant)/OD(WT) came out at 0.943.

B7: KB001 mouse Fab VL S28T/S12R (Fab, V domains shown)
VH: EVQLKQSGPGLVAPSQSLSITCTVSGFSLSIYSVHWVRQPPGKGLEWLGMIWGGGSSDYNSALKSRLSISKDNSKSQVFLKMNSLQTDDTAMYYCARNGNFYAMDYWGQGTSVTVSS
VL: QIVLTQSPAIMRASLGERVTMTCTASSTVSSSFLHWYQQKPGSSPQLWIYSTSNLASGVPARFSGSGSGTSYSLTISSMEAEDAATYYCHQYHHSPYIYTFGGGTKLEIK
Turning to B7, the OD450 nm came to 0.747 and the Ratio OD(Variant)/OD(WT) came out at 0.995.

B8: KB001 mouse Fab VL S30L (Fab, V domains shown)
VH: EVQLKQSGPGLVAPSQSLSITCTVSGFSLSIYSVHWVRQPPGKGLEWLGMIWGGGSSDYNSALKSRLSISKDNSKSQVFLKMNSLQTDDTAMYYCARNGNFYAMDYWGQGTSVTVSS
VL: QIVLTQSPAIMSASLGERVTMTCTASSSVLSSFLHWYQQKPGSSPQLWIYSTSNLASGVPARFSGSGSGTSYSLTISSMEAEDAATYYCHQYHHSPYIYTFGGGTKLEIK
With B8, the OD450 nm stood at 0.813 and the Ratio OD(Variant)/OD(WT) amounted to 0.943.

B9: KB001 mouse Fab VL S28H (Fab, V domains shown)
VH: EVQLKQSGPGLVAPSQSLSITCTVSGFSLSIYSVHWVRQPPGKGLEWLGMIWGGGSSDYNSALKSRLSISKDNSKSQVFLKMNSLQTDDTAMYYCARNGNFYAMDYWGQGTSVTVSS
VL: QIVLTQSPAIMSASLGERVTMTCTASSHVSSSFLHWYQQKPGSSPQLWIYSTSNLASGVPARFSGSGSGTSYSLTISSMEAEDAATYYCHQYHHSPYIYTFGGGTKLEIK
For B9, the OD450 nm worked out at 0.719 and the Ratio OD(Variant)/OD(WT) was determined as 0.958.

B10: KB001 mouse Fab VL V29I (Fab, V domains shown)
VH: EVQLKQSGPGLVAPSQSLSITCTVSGFSLSIYSVHWVRQPPGKGLEWLGMIWGGGSSDYNSALKSRLSISKDNSKSQVFLKMNSLQTDDTAMYYCARNGNFYAMDYWGQGTSVTVSS
VL: QIVLTQSPAIMSASLGERVTMTCTASSSISSSFLHWYQQKPGSSPQLWIYSTSNLASGVPARFSGSGSGTSYSLTISSMEAEDAATYYCHQYHHSPYIYTFGGGTKLEIK
As for B10, the OD450 nm amounted to 0.853 and the Ratio OD(Variant)/OD(WT) is 0.99.

B11: KB001 mouse Fab VL V29L (Fab, V domains shown)
VH: EVQLKQSGPGLVAPSQSLSITCTVSGFSLSIYSVHWVRQPPGKGLEWLGMIWGGGSSDYNSALKSRLSISKDNSKSQVFLKMNSLQTDDTAMYYCARNGNFYAMDYWGQGTSVTVSS
VL: QIVLTQSPAIMSASLGERVTMTCTASSSLSSSFLHWYQQKPGSSPQLWIYSTSNLASGVPARFSGSGSGTSYSLTISSMEAEDAATYYCHQYHHSPYIYTFGGGTKLEIK
As to B11, the OD450 nm worked out at 0.751 and the Ratio OD(Variant)/OD(WT) was found to be 0.871.

B12: KB001 mouse Fab VL S27K/S68Y (Fab, V domains shown)
VH: EVQLKQSGPGLVAPSQSLSITCTVSGFSLSIYSVHWVRQPPGKGLEWLGMIWGGGSSDYNSALKSRLSISKDNSKSQVFLKMNSLQTDDTAMYYCARNGNFYAMDYWGQGTSVTVSS
VL: QIVLTQSPAIMSASLGERVTMTCTASKSVSSSFLHWYQQKPGSSPQLWIYSTSNLASGVPARFSGSGYGTSYSLTISSMEAEDAATYYCHQYHHSPYIYTFGGGTKLEIK
B12: the OD450 nm is 0.736 and the Ratio OD(Variant)/OD(WT) worked out at 0.981.

B13: KB001 mouse Fab VL S28N (Fab, V domains shown)
VH: EVQLKQSGPGLVAPSQSLSITCTVSGFSLSIYSVHWVRQPPGKGLEWLGMIWGGGSSDYNSALKSRLSISKDNSKSQVFLKMNSLQTDDTAMYYCARNGNFYAMDYWGQGTSVTVSS
VL: QIVLTQSPAIMSASLGERVTMTCTASSNVSSSFLHWYQQKPGSSPQLWIYSTSNLASGVPARFSGSGSGTSYSLTISSMEAEDAATYYCHQYHHSPYIYTFGGGTKLEIK
Take B13: the OD450 nm was determined as 0.743 and the Ratio OD(Variant)/OD(WT) was determined as 0.99.

B14: KB001 mouse Fab VL S30I (Fab, V domains shown)
VH: EVQLKQSGPGLVAPSQSLSITCTVSGFSLSIYSVHWVRQPPGKGLEWLGMIWGGGSSDYNSALKSRLSISKDNSKSQVFLKMNSLQTDDTAMYYCARNGNFYAMDYWGQGTSVTVSS
VL: QIVLTQSPAIMSASLGERVTMTCTASSSVISSFLHWYQQKPGSSPQLWIYSTSNLASGVPARFSGSGSGTSYSLTISSMEAEDAATYYCHQYHHSPYIYTFGGGTKLEIK
Regarding B14, the OD450 nm was found to be 0.86 and the Ratio OD(Variant)/OD(WT) was 0.998.

B15: KB001 mouse Fab VL S30T (Fab, V domains shown)
VH: EVQLKQSGPGLVAPSQSLSITCTVSGFSLSIYSVHWVRQPPGKGLEWLGMIWGGGSSDYNSALKSRLSISKDNSKSQVFLKMNSLQTDDTAMYYCARNGNFYAMDYWGQGTSVTVSS
VL: QIVLTQSPAIMSASLGERVTMTCTASSSVTSSFLHWYQQKPGSSPQLWIYSTSNLASGVPARFSGSGSGTSYSLTISSMEAEDAATYYCHQYHHSPYIYTFGGGTKLEIK
As for B15, the OD450 nm was 0.838 and 0.817; the Ratio OD(Variant)/OD(WT) is 0.972 and 0.948.

B16: KB001 mouse Fab VL S28D (Fab, V domains shown)
VH: EVQLKQSGPGLVAPSQSLSITCTVSGFSLSIYSVHWVRQPPGKGLEWLGMIWGGGSSDYNSALKSRLSISKDNSKSQVFLKMNSLQTDDTAMYYCARNGNFYAMDYWGQGTSVTVSS
VL: QIVLTQSPAIMSASLGERVTMTCTASSDVSSSFLHWYQQKPGSSPQLWIYSTSNLASGVPARFSGSGSGTSYSLTISSMEAEDAATYYCHQYHHSPYIYTFGGGTKLEIK
Turning to B16, the OD450 nm was 0.745 and 0.722; the Ratio OD(Variant)/OD(WT) was 0.993 and 0.962.

B17: KB001 mouse Fab VL S30M (Fab, V domains shown)
VH: EVQLKQSGPGLVAPSQSLSITCTVSGFSLSIYSVHWVRQPPGKGLEWLGMIWGGGSSDYNSALKSRLSISKDNSKSQVFLKMNSLQTDDTAMYYCARNGNFYAMDYWGQGTSVTVSS
VL: QIVLTQSPAIMSASLGERVTMTCTASSSVMSSFLHWYQQKPGSSPQLWIYSTSNLASGVPARFSGSGSGTSYSLTISSMEAEDAATYYCHQYHHSPYIYTFGGGTKLEIK
B17: the OD450 nm was determined as 0.818 and the Ratio OD(Variant)/OD(WT) stood at 0.949.

B18: KB001 mouse Fab VL S30R (Fab, V domains shown)
VH: EVQLKQSGPGLVAPSQSLSITCTVSGFSLSIYSVHWVRQPPGKGLEWLGMIWGGGSSDYNSALKSRLSISKDNSKSQVFLKMNSLQTDDTAMYYCARNGNFYAMDYWGQGTSVTVSS
VL: QIVLTQSPAIMSASLGERVTMTCTASSSVRSSFLHWYQQKPGSSPQLWIYSTSNLASGVPARFSGSGSGTSYSLTISSMEAEDAATYYCHQYHHSPYIYTFGGGTKLEIK
B18: the OD450 nm is 0.778 and 0.793 and 0.802; the Ratio OD(Variant)/OD(WT) is 0.903 and 0.92 and 0.93.

B19: KB001 mouse Fab VL S28M (Fab, V domains shown)
VH: EVQLKQSGPGLVAPSQSLSITCTVSGFSLSIYSVHWVRQPPGKGLEWLGMIWGGGSSDYNSALKSRLSISKDNSKSQVFLKMNSLQTDDTAMYYCARNGNFYAMDYWGQGTSVTVSS
VL: QIVLTQSPAIMSASLGERVTMTCTASSMVSSSFLHWYQQKPGSSPQLWIYSTSNLASGVPARFSGSGSGTSYSLTISSMEAEDAATYYCHQYHHSPYIYTFGGGTKLEIK
Take B19: the OD450 nm is 0.706 and 0.675; the Ratio OD(Variant)/OD(WT) was 0.941 and 0.899.
